In PMC7772773:

Target: EGFP-RABL2B (UniProt Q9UNT1)
Test: co-immunoprecipitation (IP anti-EGFP, Western blot anti-Myc), IP/input band quantitation
Settings: lysates from HEK293T cells; Input is 2.5% of lysate used for IP; parent: 100

Chain of EGFP-RABL2B (Q9UNT1 whole entry): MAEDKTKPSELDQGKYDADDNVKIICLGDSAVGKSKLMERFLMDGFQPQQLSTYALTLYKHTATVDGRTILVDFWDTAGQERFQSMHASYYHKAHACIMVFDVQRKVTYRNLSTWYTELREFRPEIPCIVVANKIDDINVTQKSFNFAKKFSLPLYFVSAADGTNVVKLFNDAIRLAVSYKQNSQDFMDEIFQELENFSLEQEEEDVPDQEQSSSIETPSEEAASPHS

percent of parent: 29%
Substance: CD8α-(HTR6-IC3)-myc R216A; K217A; Q218A
